Assay results reported in US20200165324A1.

Experiments:
[1] = target: BG505 D474A
[2] = target: BG505 G471A
[3] = target: BG505 K121A
[4] = target: BG505 K282A
[5] = target: BG505 L369A
[6] = target: BG505 N279A
[7] = target: BG505 N332T
[8] = target: BG505 N363A
[9] = target: BG505 R476A
[10] = target: BG505 T372A
[11] = target: BG505 T373A
[12] = target: JR-CSF Env on JR-CSF pseudovirus
[13] = target: JR-CSF N276A
[14] = target: JR-CSF N283A
[15] = target: JR-CSF N362A
[16] = target: JR-CSF R476A
[17] = target: JR-CSF S199A
[18] = target: JR-CSF S365A
[19] = target: JR-CSF T198A
[20] = target: BG505 G366A; test: ELISA, gp120 captured from lysed virions
[21] = target: BG505 G367A; test: ELISA, gp120 captured from lysed virions
[22] = target: BG505 G471A; test: ELISA, gp120 captured from lysed virions
[23] = target: BG505 G472A; test: ELISA, gp120 captured from lysed virions
[24] = target: BG505 K121A; test: ELISA, gp120 captured from lysed virions
[25] = target: BG505 K282A; test: ELISA, gp120 captured from lysed virions
[26] = target: BG505 L179A; test: ELISA, gp120 captured from lysed virions
[27] = target: BG505 N197A; test: ELISA, gp120 captured from lysed virions
[28] = target: BG505 N283A; test: ELISA, gp120 captured from lysed virions
[29] = target: BG505 N363A; test: ELISA, gp120 captured from lysed virions
[30] = target: BG505 R476A; test: ELISA, gp120 captured from lysed virions
[31] = target: BG505 V371A; test: ELISA, gp120 captured from lysed virions
[32] = target: JR-CSF D368A; test: ELISA, gp120 captured from lysed virions
[33] = target: JR-CSF E370A; test: ELISA, gp120 captured from lysed virions
[34] = target: JR-CSF G366A; test: ELISA, gp120 captured from lysed virions
[35] = target: JR-CSF G471A; test: ELISA, gp120 captured from lysed virions
[36] = target: JR-CSF G472A; test: ELISA, gp120 captured from lysed virions
[37] = target: JR-CSF G473A; test: ELISA, gp120 captured from lysed virions
[38] = target: JR-CSF K207A; test: ELISA, gp120 captured from lysed virions
[39] = target: JR-CSF N262A; test: ELISA, gp120 captured from lysed virions
[40] = target: JR-CSF N276A; test: ELISA, gp120 captured from lysed virions
[41] = target: JR-CSF N279A; test: ELISA, gp120 captured from lysed virions
[42] = target: JR-CSF N283A; test: ELISA, gp120 captured from lysed virions
[43] = target: JR-CSF N362A; test: ELISA, gp120 captured from lysed virions
[44] = target: JR-CSF R476A; test: ELISA, gp120 captured from lysed virions
[45] = target: JR-CSF S199A; test: ELISA, gp120 captured from lysed virions
[46] = target: JR-CSF S365A; test: ELISA, gp120 captured from lysed virions
[47] = target: JR-CSF T198A; test: ELISA, gp120 captured from lysed virions
[48] = target: JR-CSF T372A; test: ELISA, gp120 captured from lysed virions
[49] = target: JR-CSF T373A; test: ELISA, gp120 captured from lysed virions
[50] = target: JR-CSF gp120 captured from lysed virions (HIV isolate JR-CSF) (UniProt P20871); test: ELISA, gp120 captured from lysed virions
[51] = target: BG505 E370A; test: ELISA, gp120 captured from lysed virions
[52] = target: BG505 L369A; test: ELISA, gp120 captured from lysed virions
[53] = target: BG505 N279A; test: ELISA, gp120 captured from lysed virions
[54] = target: BG505 N332T; test: ELISA, gp120 captured from lysed virions
[55] = target: BG505 S364A; test: ELISA, gp120 captured from lysed virions
[56] = target: BG505 S365A; test: ELISA, gp120 captured from lysed virions
[57] = target: BG505 T372A; test: ELISA, gp120 captured from lysed virions
[58] = target: BG505 T373A; test: ELISA, gp120 captured from lysed virions
[59] = target: BG505 gp120 captured from lysed virions (HIV isolate BG505); test: ELISA, gp120 captured from lysed virions
[60] = target: JR-CSF V371A; test: ELISA, gp120 captured from lysed virions

PGT121 (antibody)
IC50, pseudovirus neutralization [1]: 0.023 µg/mL | IC50, pseudovirus neutralization [2]: 0.014 µg/mL | IC50, pseudovirus neutralization [3]: 0.026 µg/mL | IC50, pseudovirus neutralization [4]: 9 ng/mL | IC50, pseudovirus neutralization [5]: 0.021 µg/mL | IC50, pseudovirus neutralization [6]: 0.02 µg/mL | IC50, pseudovirus neutralization [7]: 0.019 µg/mL | IC50, pseudovirus neutralization [8]: 0.026 µg/mL | IC50, pseudovirus neutralization [9]: 0.02 µg/mL | IC50, pseudovirus neutralization [10]: 0.019 µg/mL | IC50, pseudovirus neutralization [11]: 0.017 µg/mL | IC50, pseudovirus neutralization [12]: 0.028 µg/mL | IC50, pseudovirus neutralization [13]: 0.033 µg/mL | IC50, pseudovirus neutralization [14]: 0.017 µg/mL | IC50, pseudovirus neutralization [15]: 0.026 µg/mL | IC50, pseudovirus neutralization [16]: 0.014 µg/mL | IC50, pseudovirus neutralization [17]: 0.03 µg/mL | IC50, pseudovirus neutralization [18]: 0.026 µg/mL | IC50, pseudovirus neutralization [19]: 0.046 µg/mL | EC50 [20]: 0.9 µg/mL | EC50 [21]: 4 µg/mL | EC50 [22]: 2.5 µg/mL | EC50 [23]: 1.4 µg/mL | EC50 [24]: 1 µg/mL | EC50 [25]: 1.3 µg/mL | EC50 [26]: 0.5 µg/mL | EC50 [27]: 1.3 µg/mL | EC50 [28]: 3.4 µg/mL | EC50 [29]: 2.3 µg/mL | EC50 [30]: 1 µg/mL | EC50 [31]: 1.4 µg/mL | EC50 [32]: 0.942 µg/mL | EC50 [33]: 0.933 µg/mL | EC50 [34]: 0.489 µg/mL | EC50 [35]: 0.619 µg/mL | EC50 [36]: 0.664 µg/mL | EC50 [37]: 0.46 µg/mL | EC50 [38]: 0.437 µg/mL | EC50 [39]: 0.947 µg/mL | EC50 [40]: 1.25 µg/mL | EC50 [41]: 0.535 µg/mL | EC50 [42]: 0.615 µg/mL | EC50 [43]: 0.747 µg/mL | EC50 [44]: 0.984 µg/mL | EC50 [45]: 1.91 µg/mL | EC50 [46]: 0.935 µg/mL | EC50 [47]: 0.604 µg/mL | EC50 [48]: 0.698 µg/mL | EC50 [49]: 0.643 µg/mL | EC50 [50]: 1.33 µg/mL

VRC01 (antibody)
EC50 [51]: 1.1 µg/mL | EC50 [20]: 0.7 µg/mL | EC50 [21]: 9.4 µg/mL | EC50 [23]: 0.9 µg/mL | EC50 [24]: 0.7 µg/mL | EC50 [25]: 0.6 µg/mL | EC50 [26]: 0.6 µg/mL | EC50 [52]: 1.6 µg/mL | EC50 [27]: 0.4 µg/mL | EC50 [53]: 25.4 µg/mL | EC50 [54]: 0.2 µg/mL | EC50 [29]: 0.9 µg/mL | EC50 [30]: 0.5 µg/mL | EC50 [55]: 0.4 µg/mL | EC50 [56]: 1.4 µg/mL | EC50 [57]: 0.4 µg/mL | EC50 [58]: 0.5 µg/mL | EC50 [31]: 1.3 µg/mL | EC50 [59]: 0.2 µg/mL | EC50 [42]: 0.348 µg/mL | EC50 [43]: 0.327 µg/mL | EC50 [49]: 0.456 µg/mL | EC50 [60]: 1.62 µg/mL
